One assay deals with MCF7 cells. In words: Inhibition of doxorubicin-induced apoptosis in transfected MCF7 cells. The class given is cell-based. The note with it: MCF7 cells transiently transfected, doxorubicin 0.5 μg/ml. On the procedure: MCF7 cells were transiently transfected with the reporter plasmid pCMV-βgal and either vector control alone or BIR domain constructs. Following transfection, cells were exposed to doxorubicin (adriamycin; 0.5 μg/ml), stained with X-gal and apoptosis assessed by counting live and dead transfected cells. Percentage apoptosis represents the mean value of at least four sample points and is representative of three independent experiments.

The target in another assay is T1, caspase-9 (Homo sapiens, UniProt P55211).
T1 sequence (P55211 1-416): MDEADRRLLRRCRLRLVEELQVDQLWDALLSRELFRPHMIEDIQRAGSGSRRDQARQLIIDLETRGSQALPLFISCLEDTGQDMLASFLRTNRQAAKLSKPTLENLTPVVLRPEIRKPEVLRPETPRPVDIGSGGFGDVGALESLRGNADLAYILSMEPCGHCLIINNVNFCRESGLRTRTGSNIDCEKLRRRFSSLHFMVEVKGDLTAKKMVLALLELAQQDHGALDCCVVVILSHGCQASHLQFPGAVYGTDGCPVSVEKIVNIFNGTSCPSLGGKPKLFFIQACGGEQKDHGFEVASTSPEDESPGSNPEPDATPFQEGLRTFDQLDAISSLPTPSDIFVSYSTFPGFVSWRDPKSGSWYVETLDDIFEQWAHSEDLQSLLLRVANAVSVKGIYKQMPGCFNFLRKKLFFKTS
The note with it: literature; read-out: inhibition constant, caspase-9; cited from earlier work.

Assay [1] has as its target Hid-FAM (5-carboxyflourescein-conjugated AVPFAK(5-FAM)K). Kind of assay: Fluorescence polarization affinity measurement with Hid-FAM probe. The class given is binding. To be noted: 5 nM Hid-FAM, apparent Kd from EC50. On the procedure: Polarization experiments were performed on an Analyst™ HT 96-384 (Molecular Devices Corp.). […] The reactions were read after an incubation time of 10 minutes at room temperature with standard cut-off filters for the fluorescein fluorophore (λex=485 nm; λem=530 nm) in 96-well black HE96 plates (Molecular Devices Corp.). Fluorescence polarization values were plotted as a function of the protein concentration, and the EC50 values were obtained by fitting the data to a 4-parameter equation using Kaleidagraph™ software (Synergy software, Reading, Pa.). The apparent Kd values were determined from the EC50 values.
(§1) The binding affinity of the Hid-FAM probe for each of the BIR domains was determined directly using a fluorescence polarization-based assay and the result is shown graphically in FIG. 8.
Background: Fluorescence polarisation rises when a labelled molecule tumbles more slowly, as on binding a larger partner.

The target of another assay is T2, ΔCARD human caspase 9 (Homo sapiens, UniProt P55211, D305A/E304A/E306A).
T2 construct: made in house
T2 sequence (P55211 139-315 E304A/D305A/E306A limits assumed): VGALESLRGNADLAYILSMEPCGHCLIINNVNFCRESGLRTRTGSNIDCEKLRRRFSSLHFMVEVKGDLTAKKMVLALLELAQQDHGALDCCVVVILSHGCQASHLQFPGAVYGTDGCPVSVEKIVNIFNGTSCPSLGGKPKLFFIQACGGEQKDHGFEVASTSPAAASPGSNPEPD
T2 sequence (P55211 316-416 limits assumed): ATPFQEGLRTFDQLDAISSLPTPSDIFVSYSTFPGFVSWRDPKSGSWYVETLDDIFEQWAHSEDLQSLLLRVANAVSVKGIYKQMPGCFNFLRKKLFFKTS
In words: Determination of caspase-9 inhibitory constants (Ac-LEHD-AFC hydrolysis). The note with it: for Ki: read-out: Caspase-9 inhibition Ki(app). Format: biochemical. On the procedure:
ΔCARD (caspase recruitment domain) human caspase 9 (lacking the first 138 residues) with Ala substitutions at residues 304 to 306 was produced as described previously (Boatright et al., (2003) Mol Cell 11: 529–541). The third BIR of […] (residues 252–348) was also prepared as described previously (Sun et al., (2000) J Biol Chem 275(43): 33777–81).
Determination of Caspase-9 Inhibitory Constants: Recombinant ΔCARD caspase 9 (300 nM final concentration in the assay) was preactivated in salt-free caspase buffer (20 mM PIPES, 10 mM EDTA, 0.1% CHAPS and 10% (w/v) sucrose, pH 7.2) for 15 min at 37° C. Following this, a range of inhibitor concentrations were preincubated with the enzyme for 20 min at 37° C. The assay was started by the addition of Ac-LEHD-AFC (100 μM final concentration) and measured kinetically for 30 min using an fmax Fluorescence Plate Reader (Molecular Devices) at an excitation wavelength of 405 nm and an emission wavelength of 510 nm. Reaction mixtures were thermostatically controlled at 37° C. The individual Ki values for the inhibitors [I] were determined from the uninhibited substrate hydrolysis rate (vo) and the inhibited rates (vi), so that a plot of (vo/vi)−1 against [I] gives Ki(app), the equilibrium inhibition constant in the presence of substrate (Salvesen and Nagase, (1989) Proteolytic enzymes: A practical approach. R. J. Beynon and J. S. Bond. Oxford, IRL Press: 83–104).

In assay [2] the target is wild-type mature Smac protein. Kind of assay: Fluorescence polarization competition assay, mature Smac protein. The class given is binding, human. The note with it: competition with 5 nM Hid-FAM probe, Ki from IC50. On the procedure:
A PCR product containing amino acids 56–239 of Smac/DIABLO (accession number SMAC_HUMAN) was cloned into the XbaI/XhoI sites of a pet21b+ (Novagen) generating a C-terminal His6 fusion. Pet21bSmac was transformed into Escherichia coli strain BL21(DE3) competent cells (Stratagene). Overnight cultures were diluted 1:100 and grown at 37° C. in LB media with 50 μg/ml carbenicillin to an A600 of 0.8 with vigorous shaking. Isopropyl-β-D-1-thiogalactopyranoside (IPTG) was added to a final concentration of 1 mM and cultures were grown overnight at 16° C. Cell pellets were resuspended in Buffer A (50 mM Tris (pH 8.0), 300 mM NaCl, 0.5 mM PMSF, 2 mM benzamidine, 5 mM β-mercaptoethanol) with 5 mM imidazole and placed on ice for 30 minutes. Cells were homogenized, microfluidized, and centrifuged at 15,000 rpm for 45 minutes. Supernatant was loaded onto a Ni-NTA agarose column (Qiagen™), washed with 10 column volumes Buffer A with 10 mM imidazole, and eluted with 10 column volumes Buffer A with 300 mM imidazole. Fractions containing Smac protein were pooled, concentrated and loaded on a Superdex™ 200 sizing column. Protein eluted over one column volume into 50 mM Tris (pH 7.6), 300 mM NaCl, 0.5 mM PMSF, 2 mM benzamidine and 5 mM DTT. Fractions containing Smac protein were pooled and dialyzed against 3 changes of buffer containing 50 mM Tris (pH 7.6), 0.5 mM PMSF, 2 mM benzamidine and 5 mM DTT. The dialyzed sample was loaded onto a Q-Sepharose™ FF column (Pharmacia) and eluted over a 10 column volume gradient from zero to 1 M NaCl in buffer 50 mM Tris (pH 7.6), 0.5 mM PMSF, 2 mM benzamidine and 5 mM DTT. The cDNA encoding full-length ML-IAP plus a N-terminal His6-tag was cloned into the pET15b(+) expression vector (Novagen). ML-IAP was expressed in E. coli strain BL21(DE3)pLysS. […] The protein concentration of purified proteins was determined from the absorbance at 280 nm based on the molar absorption coefficients calculated from the Edelhoch relationship (Edelhoch, (1967) Biochemistry 6: 1948–1954).
Samples were read after a 10-minute incubation. Fluorescence polarization values were plotted as a function of the antagonist concentration, and the IC50 values were obtained by fitting the data to a 4-parameter equation using Kaleidagraph™ software (Synergy software; Reading, Pa.). Inhibition constants (Ki) for the antagonists were determined from the IC50 values (Keating et al., (2000) Putting the pieces together: contribution of fluorescence polarization assays to small-molecule lead optimization. Proceedings of SPIE: In-Vitro Diagnostic Instrumentation.).
as §1

[3] abbreviates: 300 nM ΔCARD caspase 9, 100 μM Ac-LEHD-AFC, 37° C.

Substitutions are numbered along the chain they refer to. “Also recorded” adds a separate entry of the source. Like-named read-outs stand apart in the source and are kept apart here.

B1: XIAP-BIR3: third BIR domain of XIAP (residues 252–348) (protein)
chain: NSTNLPRNPSMADYEARIFTFGTWIYSVNKEQLARAGFYALGEGDKVKCFHCGGGLTDWKPSEDPWEQHAKWYPGCKYLLEQKGQEYINNIHLTHSL
modifications: left off: small tags and cut ends
For B1, the “inhibition of doxorubicin-induced apoptosis” value in the assay with MCF7 cells is given as “confers resistance”. The Ki is 10 to 20 nM with caspase-9, 13 nM with ΔCARD human caspase 9 (setting [3]) and 320 nM in assay [2]. For the same molecule, the Kd in assay [1] was found to be 105 nM.

B2: MLXBIR3SG: MLXBIR3 chimera with Ser 150 of ML-IAP-BIR mutated to Gly (SEQ ID NO:2) (protein)
chain: MGSSHHHHHHSSGLVPRGSHMLETEEEEEEGAGATLSRGPAFPGMGSEELRLASFYDWPLTAEVPPELLAAAGFFHTGHQDKVRCFFCYGGLQSWKRGDDPWTEHAKWFPGCQFLLRSKGQEYINNIHLTHSL
modifications: Homo sapien
As to B2, in the assay with MCF7 cells, the “inhibition of doxorubicin-induced apoptosis” value is “significantly more efficient; also recorded: confers resistance”. The results for the Ki (in the assay with ΔCARD human caspase 9 (setting [3]); in assay [2]) were under 1 nM and 59 nM, respectively.

B3: MLXBIR3: ML-IAP-BIR in which amino acids 160–179 were replaced with amino acids 336–348 of XIAP-BIR3 (protein)
chain: TEEEEEEGAGATLSRGPAFPGMGSEELRLASFYDWPLTAEVPPELLAAAGFFHTGHQDKVRCFFCYGGLQSWKRGDDPWTEHAKWFPSCQFLLRSKGQEYINNIHLTHSL
modifications: left off: small tags and cut ends
As to B3, the “inhibition of doxorubicin-induced apoptosis” value in the assay on MCF7 cells is on record as “confers resistance”. In addition, the Kd in assay [1] is 21 nM. Also, in the assay with ΔCARD human caspase 9 (setting [3]), the Ki is 962 nM. Besides, the “fold less potent at inhibiting caspase-9 than XIAP-BIR3” value in the assay with ΔCARD human caspase 9 (relative to XIAP-BIR3) was about 70 fold. Also, the “fold better at inhibiting caspase-9 than MLBIR-Q” value with ΔCARD human caspase 9 (relative to wild-type ML-IAP-BIR construct of the same length) is given as about 5 fold.

B4: MLBIR-Q: C-terminally truncated version of ML-IAP-BIR with the same number of amino acids as MLXBIR3 and MLXBIR3SG (protein)
chain: B3 chain with Q98R, E99D, Y100F, I101V, N102H, N103S, I104V, H105Q, L106E, L110Q
modifications: left off: small tags and cut ends
With B4, the Kd in assay [1] was 20 nM. The Ki with ΔCARD human caspase 9 (setting [3]) came out at 4600 nM; in assay [2] it was 54 nM.

B5: ML-IAP: full-length melanoma inhibitor of apoptosis protein with N-terminal His6-tag (protein)
chain: MGPKDSAKCLHRGPQPSHWAAGDGPTQERCGPRSLGSPVLGLDTCRAWDHVDGQILGQLRPLTEEEEEEGAGATLSRGPAFPGMGSEELRLASFYDWPLTAEVPPELLAAAGFFHTGHQDKVRCFFCYGGLQSWKRGDDPWTEHAKWFPSCQFLLRSKGRDFVHSVQETHSQLLGSWDPWEEPEDAAPVAPSVPASGYPELPTPRREVQSESAQEPGGVSPAEAQRAWWVLEPPGARDVEAQLRRLQEERTCKVCLDRAVSIVFVPCGHLVCAECAPGLQLCPICRAPVRSRVRTFLS
modifications: left off: small tags and cut ends
B5: the Ki with ΔCARD human caspase 9 was 3000 to 5000 nM. The “fold lower potency for inhibition of caspase-9 activity relative to XIAP” value with ΔCARD human caspase 9 (relative to XIAP) is about 300 fold.

The values are drawn from patent US7067274B2, “Compositions and methods for the screening pro-apoptotic compounds” (Genentech, Inc., priority 2003, dated 2006).
